Data on 32 molecules can be found in US20240002497A1 (Merck Sharp & Dohme, published 2024).

In one experiment the target is T1, rhNav1.7α + β1-β2-β3 (rhesus monkey).
T1 construct: also called rhNav1.7-beta1-beta2-beta3; rhesus Nav1.7α
As to the kind of experiment: binding FACS, CHO FlpIn cells. The protocol: (§1) Binding of the ISVDs to cell-expressed Nav1.7α was detected via murine anti-Flag (Sigma, catalog #F1804). Briefly, cells were resuspended in FACS buffer (PBS, 10% FBS, NaN₃) and transferred to a 96-well V-bottom plate at 1×10^5 cells/well. Purified FLAG3-tagged ISVD was diluted in FACS buffer and added to the cells for 30 minutes at 4° C. […] Prior to the read-out, the samples were resuspended in 1 μg/mL propidium iodide (Sigma, catalog #P4170) to exclude dead cells. Between each step, the cells were centrifuged for 5 minutes at 200 grams and washed with 100 μL/well FACS buffer.

Another experiment addresses T2, huNav1.7α + β1-β2-β3 (human, UniProt Q15858 1-1988; A5A6L6 19-218; O60939 30-215; Q2KI11 23-215).
T2 construct: Cell line (CHO FlpIn, HEK FlpIn, transient HEK293T) is named under assay; also called huNav1.7-beta1-beta2-beta3; human Nav1.7α with Navβ1, Navβ2 and Navβ3
As to the kind of experiment: binding FACS, CHO FlpIn cells. The procedure: as §1

Numbering of substitutions follows the chain as printed.

B1: F010302334 (VHH)
VHH: EVQLVESGGGVVQPGGSLRLSCAASSRQFIRDVFTGWYRRAPGKQRELVARIYNEGNTQYADSAKGRFTISRDNAKKTVYLQMNSLRPEDTALYYCLFSGTISTGREYRSGDYWGQGTLVTVSS
For the molecule B1, in the experiment with rhNav1.7α + β1-β2-β3, the Bmax is 70% and the EC50 was 11 nM. Besides, in the experiment with huNav1.7α + β1-β2-β3, the Bmax was 100% and the EC50 worked out at 4 nM.

B2: F010302342 (VHH)
VHH: B1 VHH with R40Q
For the molecule B2, in the experiment with rhNav1.7α + β1-β2-β3, the Bmax is 61% and the EC50 amounted to 16 nM. For the same molecule, in the experiment with huNav1.7α + β1-β2-β3, the Bmax was found to be 100% and the EC50 is 4 nM.

B3: F010302356 (VHH)
VHH: B1 VHH with S26H, Q28A, V33L, N54E, E55S, Q59N, A64V
Turning to B3, in the experiment with rhNav1.7α + β1-β2-β3, the Bmax is 81% and the EC50 turned out to be 12 nM. For the same molecule, in the experiment with huNav1.7α + β1-β2-β3, the Bmax came out at 100% and the EC50 came to 5.3 nM.

B4: F010302340 (VHH)
VHH: B1 VHH with S26H, Q28A, V33L, N54E, E55S, Q59N
In the case of B4, in the experiment with rhNav1.7α + β1-β2-β3, the Bmax came to 96% and the EC50 turned out to be 13 nM. Also, in the experiment with huNav1.7α + β1-β2-β3, the Bmax worked out at 100% and the EC50 came out at 4.6 nM.

B5: F010302366 (VHH)
VHH: B1 VHH with Q28A, R40Q, E55G, Q59N
Take B5: the binding result with rhNav1.7α + β1-β2-β3 is recorded as “no binding”. For the same molecule, in the experiment with huNav1.7α + β1-β2-β3, the Bmax was 100% and the half-maximal effective concentration (EC50) came out at 3.7 nM.

B6: F010302362 (VHH)
VHH: B1 VHH with S26H, Q28A, R40Q, N54E, E55S, A64V
In the case of B6, in the experiment with rhNav1.7α + β1-β2-β3, the Bmax was found to be 89% and the EC50 is 14 nM. For the same molecule, in the experiment with huNav1.7α + β1-β2-β3, the Bmax is 100% and the EC50 came out at 5.4 nM.

B7: F010302363 (VHH)
VHH: B1 VHH with S26H, Q28A, R40Q, N54E, E55G, A64V
For B7, in the experiment with rhNav1.7α + β1-β2-β3, the Bmax turned out to be 96% and the EC50 came to 9.3 nM. Also, in the experiment with huNav1.7α + β1-β2-β3, the Bmax turned out to be 100% and the EC50 turned out to be 4.2 nM.

B8: F010302335 (VHH)
VHH: B1 VHH with N54E, E55S
As to B8, in the experiment with rhNav1.7α + β1-β2-β3, the Bmax turned out to be 84% and the EC50 amounted to 13 nM. Also, in the experiment with huNav1.7α + β1-β2-β3, the Bmax was 100% and the EC50 was found to be 4.1 nM.

B9: F010302337 (VHH)
VHH: B1 VHH with S26H, N54E, E55G
Consider B9, for which the Bmax with rhNav1.7α + β1-β2-β3 and in the experiment with huNav1.7α + β1-β2-β3 was 100% throughout. Also, the EC50 was found to be 6.8 nM with rhNav1.7α + β1-β2-β3 and 3.9 nM with huNav1.7α + β1-β2-β3.

B10: F010302360 (VHH)
VHH: B1 VHH with S26H, R40Q, A64V
Regarding B10, in the experiment with rhNav1.7α + β1-β2-β3, the Bmax worked out at 58% and the EC50 amounted to 15 nM. In the experiment with huNav1.7α + β1-β2-β3, the Bmax was 100% and the EC50 stood at 3.5 nM.

B11: F010302351 (VHH)
VHH: B1 VHH with N54E, E55S, A64V
As to B11, the figures for the Bmax in the experiment with rhNav1.7α + β1-β2-β3 and in the experiment with huNav1.7α + β1-β2-β3 were 72% and 100%, respectively. The values for the EC50 with rhNav1.7α + β1-β2-β3 and with huNav1.7α + β1-β2-β3 were 15 nM and 5.6 nM, respectively.

B12: F010302348 (VHH)
VHH: B1 VHH with S26H, Q28A, V33L, R40Q, N54E, E55S, Q59N
As for B12, the Bmax worked out at 95% with rhNav1.7α + β1-β2-β3 and 100% in the experiment with huNav1.7α + β1-β2-β3. For the same molecule, the EC50 with rhNav1.7α + β1-β2-β3 stood at 14 nM; with huNav1.7α + β1-β2-β3, 6.7 nM.

B13: F010302341 (VHH)
VHH: B1 VHH with R40Q, Q59N
B13: the binding result with rhNav1.7α + β1-β2-β3 is “no binding”. Besides, in the experiment with huNav1.7α + β1-β2-β3, the Bmax was found to be 100% and the EC50 came out at 5.3 nM.

B14: F010302339 (VHH)
VHH: B1 VHH with S26H, Q28A, N54E, E55G
As to B14, in the experiment with rhNav1.7α + β1-β2-β3, the Bmax worked out at 100% and the EC50 is 6.8 nM. For the same molecule, in the experiment with huNav1.7α + β1-β2-β3, the Bmax was determined as 100% and the EC50 was found to be 4.3 nM.

B15: F010302365 (VHH)
VHH: B1 VHH with Q28A, E55G, Q59N
Take B15: the binding result with rhNav1.7α + β1-β2-β3 is reported as “no binding”. In addition, in the experiment with huNav1.7α + β1-β2-β3, the Bmax stood at 100% and the EC50 worked out at 3.1 nM.

B16: F010302357 (VHH)
VHH: B1 VHH with R40Q, Q59N, A64V
In the case of B16, the binding result with rhNav1.7α + β1-β2-β3 is on record as “no binding”. Moreover, in the experiment with huNav1.7α + β1-β2-β3, the Bmax worked out at 100% and the EC50 was determined as 5.3 nM.

B17: F010302358 (VHH)
VHH: B1 VHH with R40Q, A64V
On to B17, for which the figures for the Bmax in the experiment with rhNav1.7α + β1-β2-β3 and with huNav1.7α + β1-β2-β3 were 37% and 100%, respectively. Moreover, the values for the EC50 in the experiment with rhNav1.7α + β1-β2-β3 and with huNav1.7α + β1-β2-β3 were 37 nM and 4.5 nM, respectively.

B18: F010302344 (VHH)
VHH: B1 VHH with S26H, R40Q
For the molecule B18, in the experiment with rhNav1.7α + β1-β2-β3, the Bmax amounted to 78% and the EC50 was found to be 13 nM. In addition, in the experiment with huNav1.7α + β1-β2-β3, the Bmax was 100% and the EC50 came to 4.3 nM.

B19: F010302353 (VHH)
VHH: B1 VHH with S26H, N54E, E55G, A64V
In the case of B19, the Bmax was found to be 93% with rhNav1.7α + β1-β2-β3 and 100% with huNav1.7α + β1-β2-β3. Also, the EC50 with rhNav1.7α + β1-β2-β3 was determined as 7.9 nM; in the experiment with huNav1.7α + β1-β2-β3, 4.2 nM.

B20: F010302361 (VHH)
VHH: B1 VHH with S26H, R40Q, N54E, E55G, A64V
Take B20: the Bmax was 92% with rhNav1.7α + β1-β2-β3 and 100% with huNav1.7α + β1-β2-β3. For the same molecule, the EC50 amounted to 11 nM with rhNav1.7α + β1-β2-β3 and 4.8 nM with huNav1.7α + β1-β2-β3.

B21: F010302346 (VHH)
VHH: B1 VHH with S26H, Q28A, R40Q, N54E, E55S
Turning to B21, the Bmax with rhNav1.7α + β1-β2-β3 came out at 99%; with huNav1.7α + β1-β2-β3 it was 100%. In addition, the EC50 amounted to 12 nM with rhNav1.7α + β1-β2-β3 and 5 nM with huNav1.7α + β1-β2-β3.

B22: F010302347 (VHH)
VHH: B1 VHH with S26H, Q28A, R40Q, N54E, E55G
Turning to B22, in the experiment with rhNav1.7α + β1-β2-β3, the Bmax stood at 100% and the EC50 is 9.6 nM. Further, in the experiment with huNav1.7α + β1-β2-β3, the Bmax was found to be 100% and the EC50 came out at 4.6 nM.

B23: F010302368 (VHH)
VHH: B1 VHH with Q28A, R40Q, E55G, Q59N, A64V
For the molecule B23, in the experiment with rhNav1.7α + β1-β2-β3, the binding result was “no binding”. For the same molecule, in the experiment with huNav1.7α + β1-β2-β3, the Bmax stood at 100% and the EC50 is 3.9 nM.

B24: F010302343 (VHH)
VHH: B1 VHH with R40Q, N54E, E55S
Turning to B24, in the experiment with rhNav1.7α + β1-β2-β3, the Bmax turned out to be 84% and the EC50 was 18 nM. For the same molecule, in the experiment with huNav1.7α + β1-β2-β3, the Bmax came out at 100% and the EC50 is 6.4 nM.

B25: F010302338 (VHH)
VHH: B1 VHH with S26H, Q28A, N54E, E55S
Regarding B25, the Bmax with rhNav1.7α + β1-β2-β3 and in the experiment with huNav1.7α + β1-β2-β3 was 100% in each case. Also, the EC50 was 7.9 nM in the experiment with rhNav1.7α + β1-β2-β3 and 3.4 nM in the experiment with huNav1.7α + β1-β2-β3.

B26: F010302352 (VHH)
VHH: B1 VHH with S26H, A64V
For the molecule B26, the Bmax in the experiment with rhNav1.7α + β1-β2-β3 turned out to be 60%; with huNav1.7α + β1-β2-β3 it was 100%. Moreover, the figures for the EC50 in the experiment with rhNav1.7α + β1-β2-β3 and in the experiment with huNav1.7α + β1-β2-β3 were 11 nM and 3.6 nM, respectively.

B27: F010302364 (VHH)
VHH: B1 VHH with S26H, Q28A, V33L, R40Q, N54E, E55S, Q59N, A64V
Consider B27, for which, in the experiment with rhNav1.7α + β1-β2-β3, the Bmax worked out at 74% and the EC50 is 17 nM. In the experiment with huNav1.7α + β1-β2-β3, the Bmax is 100% and the EC50 is 7.2 nM.

B28: F010302354 (VHH)
VHH: B1 VHH with S26H, Q28A, N54E, E55S, A64V
For the molecule B28, in the experiment with rhNav1.7α + β1-β2-β3, the Bmax was 96% and the EC50 stood at 7.9 nM. Further, in the experiment with huNav1.7α + β1-β2-β3, the Bmax was found to be 100% and the EC50 amounted to 4.2 nM.

B29: F010302355 (VHH)
VHH: B1 VHH with S26H, Q28A, N54E, E55G, A64V
For B29, the Bmax is 97% with rhNav1.7α + β1-β2-β3 and 100% with huNav1.7α + β1-β2-β3. Moreover, the EC50 with rhNav1.7α + β1-β2-β3 was found to be 6.8 nM; with huNav1.7α + β1-β2-β3, 3.5 nM.

B30: F010302336 (VHH)
VHH: B1 VHH with S26H
As to B30, in the experiment with rhNav1.7α + β1-β2-β3, the Bmax stood at 79% and the EC50 was found to be 9.7 nM. Moreover, in the experiment with huNav1.7α + β1-β2-β3, the Bmax turned out to be 100% and the EC50 was determined as 3.6 nM.

B31: F010302350 (VHH)
VHH: B1 VHH with A64V
With B31, in the experiment with rhNav1.7α + β1-β2-β3, the Bmax was 46% and the EC50 came out at 15 nM. For the same molecule, in the experiment with huNav1.7α + β1-β2-β3, the Bmax amounted to 100% and the EC50 amounted to 3.5 nM.

B32: F010302359 (VHH)
VHH: B1 VHH with R40Q, N54E, E55S, A64V
For the molecule B32, the Bmax with rhNav1.7α + β1-β2-β3 is 66%; with huNav1.7α + β1-β2-β3, 100%. Besides, the EC50 with rhNav1.7α + β1-β2-β3 was determined as 24 nM; with huNav1.7α + β1-β2-β3, 6.4 nM.
